Measured values as given in patent US20040115660A1 (published 2004).
Each block holds one binder with its values, some of them ahead of it.

How the values were obtained:
mouse TIE2 = target: T1, mouse TIE2 (mouse, UniProt Q02858 23-1122); assay: co-immunoprecipitation from cotransfected 293T cells
T1 construct: whole, on cells

human EGFR = target: T2, human EGFR (human, UniProt P00533 25-1210); assay: as above
T2 construct: whole, on cells

mouse VEGFR2 = target: T3, mouse VEGFR2 (mouse, UniProt P35918 20-1345); assay: as above
T3 construct: whole, on cells
T3 sequence (P35918 20-1345): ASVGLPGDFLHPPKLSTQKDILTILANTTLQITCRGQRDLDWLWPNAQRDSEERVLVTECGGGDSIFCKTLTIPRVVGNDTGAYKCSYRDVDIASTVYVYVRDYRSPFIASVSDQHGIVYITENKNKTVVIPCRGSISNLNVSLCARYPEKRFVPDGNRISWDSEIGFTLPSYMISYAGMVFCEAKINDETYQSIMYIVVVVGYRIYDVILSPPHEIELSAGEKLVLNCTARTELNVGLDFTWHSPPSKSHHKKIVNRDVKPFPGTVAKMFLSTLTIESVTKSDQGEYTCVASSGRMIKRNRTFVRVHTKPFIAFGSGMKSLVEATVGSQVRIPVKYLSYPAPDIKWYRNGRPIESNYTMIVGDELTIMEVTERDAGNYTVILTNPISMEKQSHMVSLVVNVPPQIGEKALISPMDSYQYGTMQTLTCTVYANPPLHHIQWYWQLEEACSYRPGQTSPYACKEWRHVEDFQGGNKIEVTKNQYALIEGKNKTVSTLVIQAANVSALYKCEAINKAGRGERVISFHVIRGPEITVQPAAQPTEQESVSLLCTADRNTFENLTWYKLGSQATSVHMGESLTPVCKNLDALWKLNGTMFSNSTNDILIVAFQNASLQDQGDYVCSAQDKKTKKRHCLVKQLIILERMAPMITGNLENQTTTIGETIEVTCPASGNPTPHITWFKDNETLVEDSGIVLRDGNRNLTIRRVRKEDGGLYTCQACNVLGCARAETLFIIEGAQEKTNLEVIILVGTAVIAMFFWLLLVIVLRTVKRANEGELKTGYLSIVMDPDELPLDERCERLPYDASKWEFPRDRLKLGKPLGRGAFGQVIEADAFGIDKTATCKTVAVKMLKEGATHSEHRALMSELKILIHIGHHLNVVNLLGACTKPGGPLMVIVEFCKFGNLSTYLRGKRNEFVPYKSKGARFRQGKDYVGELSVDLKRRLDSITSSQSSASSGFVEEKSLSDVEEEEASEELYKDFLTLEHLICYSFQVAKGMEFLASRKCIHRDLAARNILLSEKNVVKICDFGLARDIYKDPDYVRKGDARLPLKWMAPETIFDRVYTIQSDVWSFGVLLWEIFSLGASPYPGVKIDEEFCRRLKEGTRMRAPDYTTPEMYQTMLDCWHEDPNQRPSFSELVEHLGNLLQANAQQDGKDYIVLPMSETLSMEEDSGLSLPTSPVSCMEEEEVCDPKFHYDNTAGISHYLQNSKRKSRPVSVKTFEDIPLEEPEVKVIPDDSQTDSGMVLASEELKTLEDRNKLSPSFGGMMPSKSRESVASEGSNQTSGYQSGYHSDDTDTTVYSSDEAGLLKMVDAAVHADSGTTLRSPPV

human EphB3 = target: T4, human EphB3 (human, UniProt P54753 34-998); assay: anti-Myc immunoprecipitation from 293T cells co-expressing RYK, AF-6 and EphB3 (FIG. 4b)
T4 construct: whole, on cells; also called Eph receptor B3
T4 sequence (looked up): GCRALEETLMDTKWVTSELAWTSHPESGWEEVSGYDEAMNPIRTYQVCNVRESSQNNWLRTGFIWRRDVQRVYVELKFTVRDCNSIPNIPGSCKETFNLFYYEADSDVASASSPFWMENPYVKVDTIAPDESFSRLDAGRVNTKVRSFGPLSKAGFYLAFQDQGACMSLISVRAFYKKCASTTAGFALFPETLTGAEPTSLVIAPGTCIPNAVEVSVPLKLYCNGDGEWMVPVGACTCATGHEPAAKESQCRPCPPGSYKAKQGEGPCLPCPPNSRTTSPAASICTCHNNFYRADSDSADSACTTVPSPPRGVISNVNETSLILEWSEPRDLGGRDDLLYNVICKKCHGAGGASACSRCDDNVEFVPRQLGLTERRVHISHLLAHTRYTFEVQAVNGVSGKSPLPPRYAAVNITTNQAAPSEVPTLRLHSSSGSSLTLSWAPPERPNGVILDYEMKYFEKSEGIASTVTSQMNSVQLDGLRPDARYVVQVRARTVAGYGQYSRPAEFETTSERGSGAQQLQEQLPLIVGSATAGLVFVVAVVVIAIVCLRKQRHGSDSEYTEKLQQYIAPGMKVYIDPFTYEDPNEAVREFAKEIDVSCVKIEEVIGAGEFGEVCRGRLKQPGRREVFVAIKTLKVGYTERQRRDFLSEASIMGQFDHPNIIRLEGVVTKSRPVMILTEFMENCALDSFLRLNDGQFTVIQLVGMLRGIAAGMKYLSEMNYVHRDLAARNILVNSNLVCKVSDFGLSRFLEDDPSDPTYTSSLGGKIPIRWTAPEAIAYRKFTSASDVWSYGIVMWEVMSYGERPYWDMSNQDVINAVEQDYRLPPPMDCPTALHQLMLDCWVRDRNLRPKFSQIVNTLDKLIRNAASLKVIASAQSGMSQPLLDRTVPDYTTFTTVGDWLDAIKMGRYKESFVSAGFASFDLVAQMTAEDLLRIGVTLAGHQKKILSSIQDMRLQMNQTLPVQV
Procedure: Lysis and subsequent analysis of complexes in triple-transfected cells was performed as previously described (13). The inventors prepared embryonic and tissue lysates by Dounce homogenization. The inventors cleared lysates of insoluble debris by centrifugation, and performed immunoprecipitation from cleared lysates containing equal amounts of total protein as assessed by the BCA assay (Pierce). Immune complexes were captured by incubation with protein A-, G- or L-conjugated beads. The mouse anti-RYK monoclonal antibody (IgMₓ isotype⁵) was covalently coupled to CNBr-activated Sepharose 4B (Pharmacia) at 1 mg/ml packed beads for immunoprecipitation or cross-linked it in solution using a goat anti-mouse IgM (Jackson Immunoresearch). The inventors used anti-FLAG monoclonal antibody M2 (Sigma) for immunoprecipitation as an affinity gel and for Western blotting in a biotinylated form. Anti-AF-6 monoclonal antibody (clone 35) was obtained from Transduction Laboratories and anti-Myc monoclonal antibody (clone 9E10) from Zymed Laboratories. Immune complexes were collected by centrifugation and washed three times in HNTG, eluted in 20-50 μL of 2×SDS-PAGE sample buffer containing 10% v/v 2-mercaptoethanol, fractionated by SDS-PAGE and electroblotted to Immobilon P (Millipore) for Western analysis. […]

endogenous mouse AF-6 = target: T5, endogenous mouse AF-6 (mouse, UniProt Q9QZQ1 1-1820, limits assumed); assay: co-immunoprecipitation from mouse tissue lysates, both directions (FIG. 4c)
T5 construct: also called Afadin
T5 sequence (Q9QZQ1 whole entry): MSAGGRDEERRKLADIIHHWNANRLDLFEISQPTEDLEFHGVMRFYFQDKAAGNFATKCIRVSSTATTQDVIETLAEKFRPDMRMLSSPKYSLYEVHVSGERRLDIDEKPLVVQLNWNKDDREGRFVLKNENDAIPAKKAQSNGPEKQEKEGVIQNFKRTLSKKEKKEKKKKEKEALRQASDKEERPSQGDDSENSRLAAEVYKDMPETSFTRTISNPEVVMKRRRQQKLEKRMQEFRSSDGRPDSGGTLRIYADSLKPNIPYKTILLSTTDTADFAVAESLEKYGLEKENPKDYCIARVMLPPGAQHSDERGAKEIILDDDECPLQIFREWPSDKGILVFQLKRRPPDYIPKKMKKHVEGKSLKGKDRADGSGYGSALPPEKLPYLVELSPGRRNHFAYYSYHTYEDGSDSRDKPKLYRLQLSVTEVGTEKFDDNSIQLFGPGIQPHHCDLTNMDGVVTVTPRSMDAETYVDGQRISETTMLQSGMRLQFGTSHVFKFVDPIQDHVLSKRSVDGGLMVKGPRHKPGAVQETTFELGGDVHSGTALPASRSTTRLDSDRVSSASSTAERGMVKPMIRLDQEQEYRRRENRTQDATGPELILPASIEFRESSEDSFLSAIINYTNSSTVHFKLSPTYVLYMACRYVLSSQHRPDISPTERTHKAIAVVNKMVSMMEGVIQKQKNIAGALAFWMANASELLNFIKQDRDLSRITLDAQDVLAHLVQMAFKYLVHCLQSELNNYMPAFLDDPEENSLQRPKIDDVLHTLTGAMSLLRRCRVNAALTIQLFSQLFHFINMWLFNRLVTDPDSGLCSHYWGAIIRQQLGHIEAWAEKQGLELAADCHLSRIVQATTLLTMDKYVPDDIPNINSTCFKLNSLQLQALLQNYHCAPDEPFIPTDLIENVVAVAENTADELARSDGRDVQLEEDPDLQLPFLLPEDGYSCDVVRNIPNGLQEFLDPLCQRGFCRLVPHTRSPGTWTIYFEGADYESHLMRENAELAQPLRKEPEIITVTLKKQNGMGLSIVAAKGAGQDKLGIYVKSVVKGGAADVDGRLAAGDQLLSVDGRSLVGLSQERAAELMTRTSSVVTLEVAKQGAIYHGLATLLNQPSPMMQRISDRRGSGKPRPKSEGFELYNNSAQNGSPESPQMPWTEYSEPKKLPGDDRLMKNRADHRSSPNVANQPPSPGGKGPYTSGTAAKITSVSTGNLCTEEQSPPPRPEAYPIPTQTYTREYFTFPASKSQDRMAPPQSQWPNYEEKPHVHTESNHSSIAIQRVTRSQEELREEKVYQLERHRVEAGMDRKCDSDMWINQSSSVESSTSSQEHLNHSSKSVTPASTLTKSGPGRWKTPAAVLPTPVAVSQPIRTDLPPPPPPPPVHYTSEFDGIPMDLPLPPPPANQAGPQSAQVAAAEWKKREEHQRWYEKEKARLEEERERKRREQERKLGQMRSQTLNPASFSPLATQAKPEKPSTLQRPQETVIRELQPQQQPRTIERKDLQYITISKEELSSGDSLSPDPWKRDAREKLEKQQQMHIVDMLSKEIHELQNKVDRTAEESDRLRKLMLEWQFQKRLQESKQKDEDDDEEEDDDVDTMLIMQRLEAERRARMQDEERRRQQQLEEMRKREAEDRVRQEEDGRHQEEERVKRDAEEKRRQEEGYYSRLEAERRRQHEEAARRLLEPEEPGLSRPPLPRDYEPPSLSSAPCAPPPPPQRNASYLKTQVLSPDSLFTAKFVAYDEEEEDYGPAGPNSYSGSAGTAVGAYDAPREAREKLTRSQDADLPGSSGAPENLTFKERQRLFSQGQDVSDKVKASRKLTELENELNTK

T1 sequence (Q02858 23-1122): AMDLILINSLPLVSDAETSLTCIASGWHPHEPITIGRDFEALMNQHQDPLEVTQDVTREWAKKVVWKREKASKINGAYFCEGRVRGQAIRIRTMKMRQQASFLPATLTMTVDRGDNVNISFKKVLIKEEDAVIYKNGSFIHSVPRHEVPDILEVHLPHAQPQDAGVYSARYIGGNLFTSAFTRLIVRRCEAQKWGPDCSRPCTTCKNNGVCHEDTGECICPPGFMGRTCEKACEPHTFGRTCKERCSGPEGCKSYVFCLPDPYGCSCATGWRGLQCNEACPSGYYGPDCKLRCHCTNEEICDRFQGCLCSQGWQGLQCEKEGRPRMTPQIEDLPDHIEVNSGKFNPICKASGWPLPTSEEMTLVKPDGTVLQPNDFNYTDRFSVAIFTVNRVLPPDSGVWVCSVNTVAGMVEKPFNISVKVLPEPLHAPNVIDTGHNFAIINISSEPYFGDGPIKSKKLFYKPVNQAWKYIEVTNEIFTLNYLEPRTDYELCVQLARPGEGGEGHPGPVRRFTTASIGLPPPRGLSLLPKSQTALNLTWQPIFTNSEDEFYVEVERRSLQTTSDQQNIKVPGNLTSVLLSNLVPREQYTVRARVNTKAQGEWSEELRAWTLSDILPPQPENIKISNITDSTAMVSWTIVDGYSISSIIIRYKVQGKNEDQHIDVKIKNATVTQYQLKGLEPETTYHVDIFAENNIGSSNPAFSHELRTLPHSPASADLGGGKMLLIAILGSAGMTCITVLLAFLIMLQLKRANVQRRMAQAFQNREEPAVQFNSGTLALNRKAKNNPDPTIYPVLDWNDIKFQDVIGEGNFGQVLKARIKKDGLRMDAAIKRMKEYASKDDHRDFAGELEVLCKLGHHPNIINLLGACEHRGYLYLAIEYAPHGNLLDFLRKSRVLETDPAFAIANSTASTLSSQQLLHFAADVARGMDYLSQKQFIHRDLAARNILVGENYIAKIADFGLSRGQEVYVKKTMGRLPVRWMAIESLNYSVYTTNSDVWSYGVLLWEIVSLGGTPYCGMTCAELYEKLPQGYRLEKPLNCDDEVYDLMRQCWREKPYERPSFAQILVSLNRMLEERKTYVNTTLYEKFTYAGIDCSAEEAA

binding result (mouse TIE2): no binding
binding result (human EGFR): no binding
binding result (mouse VEGFR2): no binding
binding result (human EphB3): binds
B1: Myc2.RYK (double Myc epitope-tagged mouse RYK) (receptor, UniProt Q01887 35-594, looked up, not shown: small tags and cut ends)
chain: RSPALAAAPAGPSVSLYLSEDEVRRLLGLDAELYYVRNDLISHYALSFNLLVPSETNFLHFTWHAKSKVEYKLGFQVDNFVAMGMPQVNISAQGEVPRTLSVFRVELSCTGKVDSEVMILMQLNLTVNSSKNFTVLNFKRRKMCYKKLEEVKTSALDKNTSRTIYDPVHAAPTTSTRVFYISVGVCCAVIFLVAIILAVLHLHSMKRIELDDSISASSSSQGLSQPSTQTTQYLRADTPNNATPITSSSGYPTLRIEKNDLRSVTLLEAKAKVKDIAISRERITLKDVLQEGTFGRIFHGILVDEKDPNKEKQTFVKTVKDQASEVQVTMMLTESCKLRGLHHRNLLPITHVCIEEGEKPMVVLPYMNWGNLKLFLRQCKLVEANNPQAISQQDLVHMAIQIACGMSYLARREVIHRDLAARNCVIDDTLQVKITDNALSRDLFPMDYHCLGDNENRPVRWMALESLVNNEFSSASDVWAFGVTLWELMTLGQTPYVDIDPFEMAAYLKDGYRIAQPINCPDELFAVMACCWALDPEERPKFQQLVQCLTEFHAALGAYV
notes: mature; also called wild-type RYK

binding result (endogenous mouse AF-6): binds
B2: endogenous mouse RYK (receptor, UniProt Q01887 35-594, looked up)
chain: B1 chain
notes: also called RYK beta subunit
